In paper PMC5398727, “GP73 represses host innate immune response to promote virus replication by facilitating MAVS and TRAF6 degradation” (PLoS Pathogens, 2017):

Target: T1, GST-GP73 (aa36-401) (human, UniProt Q8NBJ4 36-401)
T1 construct: also called recombinant GST-GP73; GST-fused GP73; source: E. coli BL21, purified (glutathione Sepharose 4B)
T1 sequence (looked up): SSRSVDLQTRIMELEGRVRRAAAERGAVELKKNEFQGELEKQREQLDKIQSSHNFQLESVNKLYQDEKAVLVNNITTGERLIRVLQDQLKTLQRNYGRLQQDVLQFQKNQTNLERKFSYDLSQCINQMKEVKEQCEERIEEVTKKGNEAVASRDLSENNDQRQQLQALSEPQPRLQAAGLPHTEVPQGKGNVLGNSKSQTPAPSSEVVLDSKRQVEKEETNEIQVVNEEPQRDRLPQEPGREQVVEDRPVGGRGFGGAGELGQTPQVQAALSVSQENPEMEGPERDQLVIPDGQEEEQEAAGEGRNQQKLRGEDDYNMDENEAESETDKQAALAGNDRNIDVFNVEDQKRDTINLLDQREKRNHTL
Assay: pull-down; purified MBP, MBP-M11 or MBP-T6CC (20 μg) with 10 μg GST or 20 μg GST-GP73 overnight at 4°C; WB (S4A Fig)
Conditions: both partners purified

B1: MBP-M11 (domain or fragment, UniProt Q7Z434 1-90, looked up)
chain: MPFAEDKTYKYICRNFSNFCNVDVVEILPYLPCLTARDQDRLRATCTLSGNRDTLWHLFNTLQRRPGWVEYFIAALRGCELVDLADEVASISASTSLGMGPCHGPEENEYKSEGTFGIHVAENPSIQLLEGNPGPPADPDGGPRPQADRKFQEREVPCHRPSPGALWLQVAVTGVLVVTLLVVLYRRRLH
notes: also called MBP-fused M11; source: E. coli BL21, purified (amylose resin)
binding result: binds
